Measured values taken from patent US20230105029A1 (CHIA TAI TIANQING PHARMACEUTICAL GROUP, published 2023).
Residue numbers refer to the chain shown, from its start. Read-outs that look alike come from different tables or passages of the source. Values belong to the binder of their own block, whether it stands above or below them.

Tests used:
[1] = molecular target: T1, recombinant human IL4Rα-his protein (in house made) (human, UniProt P24394 26-232, limits assumed); test: SPR (Biacore), antibody captured, IL4Rα-his flowed
T1 construct: also called Human IL4Ra-his

[2] = molecular target: T1, recombinant human IL4Rα-his protein (in …); test: SPR (Biacore), antibody captured, IL4Rα-his flowed; remark: listed apart in the source

- Kd [1]: 3.73 nM
- koff [1]: 0.00208 s⁻¹
- kon [1]: 557000 M⁻¹ s⁻¹
B1: huB8G11F2B7G5E8-V1 (antibody, human IgG4 S228P, kappa, V domains shown)
VH: EVQLVQSGAEVKKPGATVKISCKASGFNIKDTYMHWVKQAPGKGLEWVGRIDPTNGYTIYASKFQGKATITADTSSNTAYMELSSLRSEDTAVYHCVSRRPWFAYWGQGTLVTVSS
VL: DIVMTQTPLSLSVTPGQPASISCRSSQSIVHSNGNTYLEWYLQKPGQSPQLLIYKVTNRFSGVPDRFSGSGSGTDFTLKISRVEAEDVGVYYCFQGSHVPYTFGQGTKLEIKR
notes: Humanized, human IgG4/kappa; also called huBSG11F2B7G5E8-V1

- Kd [1]: 3.87 nM
- koff [1]: 0.0012 s⁻¹
- kon [1]: 310000 M⁻¹ s⁻¹
B2: huB8G11F2B7G5E8-V13 (antibody, human IgG4 S228P, kappa, V domains shown)
VH: QVQLQQSGAELVKPGASVKLSCTASGFNIKDTYMHWVKQRPEQGLEWVGRIDPTNGYTIYASKFQGKATITADTSSNTAYMQLSSLTSEDTAVYHCVSRRPWFAYWGQGTTLTVSS
VL: B1 VL
notes: Humanized, human IgG4/kappa; also called huBSG11F2B7G5E8-V13

- Kd [1]: 4.79 nM
- koff [1]: 0.0028 s⁻¹
- kon [1]: 585000 M⁻¹ s⁻¹
B3: huB8G11F2B7G5E8-V10 (antibody, human IgG4 S228P, kappa, V domains shown)
VH: B1 VH with K67R, A68V, S76T
VL: B1 VL
notes: Humanized, human IgG4/kappa; also called huBSG11F2B7G5E8-V10

- Kd [1]: 5.32 nM
- koff [1]: 0.00331 s⁻¹
- kon [1]: 621000 M⁻¹ s⁻¹
B4: huB8G11F2B7G5E8-V9 (antibody, human IgG4 S228P, kappa, V domains shown)
VH: B1 VH with H95Y
VL: B1 VL
notes: Humanized, human IgG4/kappa; also called huBSG11F2B7G5E8-V9

- Kd [1]: 4.89 nM
- koff [1]: 0.00283 s⁻¹
- kon [1]: 578000 M⁻¹ s⁻¹
B5: huB8G11F2B7G5E8-V8 (antibody, human IgG4 S228P, kappa, V domains shown)
VH: B1 VH with N77D
VL: B1 VL
notes: Humanized, human IgG4/kappa; also called huBSG11F2B7G5E8-V8

- Kd [1]: 14.9 nM
B6: huB8G11F2B7G5E8-V11 (antibody, human IgG4 S228P, kappa, V domains shown)
VH: B1 VH with A24V, K38Q, V48M, R50L, S62E, K67R, A68V, S76T, N77D, H95Y
VL: B1 VL
notes: Humanized, human IgG4/kappa; also called huBSG11F2B7G5E8-V11

- Kd [1]: 3.57 nM
- koff [1]: 0.00199 s⁻¹
- kon [1]: 558000 M⁻¹ s⁻¹
B7: huB8G11F2B7G5E8-V3 (antibody, human IgG4 S228P, kappa, V domains shown)
VH: B1 VH with K38Q
VL: B1 VL
notes: Humanized, human IgG4/kappa; also called huBSG11F2B7G5E8-V3

- Kd [1]: 4.13 nM
- koff [1]: 0.00241 s⁻¹
- kon [1]: 584000 M⁻¹ s⁻¹
B8: huB8G11F2B7G5E8-V5 (antibody, human IgG4 S228P, kappa, V domains shown)
VH: B1 VH with K67R
VL: B1 VL
notes: Humanized, human IgG4/kappa; also called huBSG11F2B7G5E8-V5

- Kd [1]: 3.95 nM
- koff [1]: 0.00219 s⁻¹
- kon [1]: 554000 M⁻¹ s⁻¹
B9: huB8G11F2B7G5E8-V6 (antibody, human IgG4 S228P, kappa, V domains shown)
VH: B1 VH with A68V
VL: B1 VL
notes: Humanized, human IgG4/kappa; also called huBSG11F2B7G5E8-V6

- Kd [1]: 3.75 nM
- koff [1]: 0.00222 s⁻¹
- kon [1]: 592000 M⁻¹ s⁻¹
B10: huB8G11F2B7G5E8-V7 (antibody, human IgG4 S228P, kappa, V domains shown)
VH: B1 VH with S76T
VL: B1 VL
notes: Humanized, human IgG4/kappa; also called huBSG11F2B7G5E8-V7

- Dissociation % [2]: 0.2%
- End (RU) [2]: 49.6 RU
- Kd [2]: < 0.022 nM
- Start (RU) [2]: 49.5 RU
- koff [2]: < 1e-05 s⁻¹
- kon [2]: 455000 M⁻¹ s⁻¹
B11: huC2C1A1A1-V4 (antibody, human IgG4 S228P, kappa, V domains shown)
VH: EVQLVESGGGLVQPGGSLRLSCAASGFTFSTYGMSWVRQAPGKGLVWVSTINSNGGSTSYPDSVKGRFTISRDNAKNTLYLQMNSLRAEDTAVYYCARFFRFRNAMDYWGQGTLVTVSS
VL: DIQMTQSPSSLSASVGDRVTITCRTSENIYSYLAWYQQKPGKAPKFLIYNAKTLAEGVPSRFSGSGSGTDFTLTISSLQPEDFATYYCQHYYGPPTWTFGQGTKVEIKR
notes: Humanized, human IgG4/kappa

- Dissociation % [2]: -1.54%
- End (RU) [2]: 63.9 RU
- Kd [2]: < 0.0304 nM
- Start (RU) [2]: 64.9 RU
- koff [2]: < 1e-05 s⁻¹
- kon [2]: 329000 M⁻¹ s⁻¹
B12: huC2C1A1A1-V10 (antibody, human IgG4 S228P, kappa, V domains shown)
VH: B11 VH with W47L, S49A
VL: DIQMTQSPSSLSASVGQRVTITCRTSENIYSYLAWYQQKQGKPPRFLIYNAKTLAEGVPSRFSGSGSGTEFTLTITSLQAEDFGVYYCQHYYGPPTWTFGPGTKLEIKR
notes: Humanized, human IgG4/kappa

- Dissociation % [2]: -0.59%
- End (RU) [2]: 50.6 RU
- Kd [2]: < 0.0261 nM
- Start (RU) [2]: 50.9 RU
- koff [2]: < 1e-05 s⁻¹
- kon [2]: 383000 M⁻¹ s⁻¹
B13: huC2C1A1A1-V6 (antibody, human IgG4 S228P, kappa, V domains shown)
VH: B11 VH with A40S, G42D, G44R, V46E, N84R
VL: B12 VL
notes: Humanized, human IgG4/kappa

- Dissociation % [2]: -2.28%
- End (RU) [2]: 64.3 RU
- Kd [2]: 0.0283 nM
- Start (RU) [2]: 65.8 RU
- koff [2]: 7.5e-05 s⁻¹
- kon [2]: 2.65e+06 M⁻¹ s⁻¹
B14: huC2C1A1A1-V5 (antibody, human IgG4 S228P, kappa, V domains shown)
VH: B11 VH with A40S, G42D, G44R, V46E, N84R
VL: B11 VL with F46L
notes: Humanized, human IgG4/kappa

- Dissociation % [2]: -0.66%
- End (RU) [2]: 60.1 RU
- Kd [2]: < 0.038 nM
- Start (RU) [2]: 60.5 RU
- koff [2]: < 1e-05 s⁻¹
- kon [2]: 263000 M⁻¹ s⁻¹
B15: huC2C1A1A1-V7 (antibody, human IgG4, V domains shown)
VH: B11 VH with A40S, G42D, G44R, V46E, N84R
VL: B11 VL with I48V
notes: Humanized, human IgG4/kappa

- Dissociation % [2]: -0.62%
- End (RU) [2]: 48.3 RU
- Kd [2]: < 0.0389 nM
- Start (RU) [2]: 48.6 RU
- koff [2]: < 1e-05 s⁻¹
- kon [2]: 257000 M⁻¹ s⁻¹
B16: huC2C1A1A1-V3 (antibody, human IgG4, V domains shown)
VH: B11 VH
VL: B11 VL with I48V
notes: Humanized, human IgG4/kappa

- Dissociation % [2]: -0.2%
- End (RU) [2]: 50.3 RU
- Kd [2]: < 0.0442 nM
- Start (RU) [2]: 50.4 RU
- koff [2]: < 1e-05 s⁻¹
- kon [2]: 226000 M⁻¹ s⁻¹
B17: huC2C1A1A1-V2 (antibody, human IgG4 S228P, kappa, V domains shown)
VH: B11 VH
VL: B12 VL
notes: Humanized, human IgG4/kappa

- Dissociation % [2]: -1.23%
- End (RU) [2]: 64.4 RU
- Kd [2]: < 0.036 nM
- Start (RU) [2]: 65.2 RU
- koff [2]: < 1e-05 s⁻¹
- kon [2]: 278000 M⁻¹ s⁻¹
B18: huC2C1A1A1-V8 (antibody, human IgG4 S228P, kappa, V domains shown)
VH: B11 VH with A40S, G42D, G44R, V46E, N84R
VL: B11 VL
notes: Humanized, human IgG4/kappa

- Dissociation % [2]: -0.24%
- End (RU) [2]: 41.1 RU
- Kd [2]: < 0.0507 nM
- Start (RU) [2]: 41.2 RU
- koff [2]: < 1e-05 s⁻¹
- kon [2]: 197000 M⁻¹ s⁻¹
B19: huC2C1A1A1-V9 (antibody, human IgG4 S228P, kappa, V domains shown)
VH: B11 VH with W47L, S49A
VL: B11 VL with F46L
notes: Humanized, human IgG4/kappa

- Dissociation % [2]: -0.92%
- End (RU) [2]: 53.7 RU
- Kd [2]: < 0.0303 nM
- Start (RU) [2]: 54.2 RU
- koff [2]: < 1e-05 s⁻¹
- kon [2]: 330000 M⁻¹ s⁻¹
B20: huC2C1A1A1-V11 (antibody, human IgG4, V domains shown)
VH: B11 VH with W47L, S49A
VL: B11 VL with I48V
notes: Humanized, human IgG4/kappa

- Dissociation % [2]: -1.88%
- End (RU) [2]: 52.1 RU
- Kd [2]: 0.047 nM
- Start (RU) [2]: 53.1 RU
- koff [2]: 1.42e-05 s⁻¹
- kon [2]: 302000 M⁻¹ s⁻¹
B21: huC2C1A1A1-V12 (antibody, human IgG4 S228P, kappa, V domains shown)
VH: B11 VH with W47L, S49A
VL: B11 VL
notes: Humanized, human IgG4/kappa

- Dissociation % [2]: 0.82%
- End (RU) [2]: 36.7 RU
- Kd [2]: < 0.0838 nM
- Start (RU) [2]: 36.4 RU
- koff [2]: < 1e-05 s⁻¹
- kon [2]: 119000 M⁻¹ s⁻¹
B22: huC2C1A1A1-V13 (antibody, human IgG4 S228P, kappa, V domains shown)
VH: B11 VH with S49A
VL: B11 VL with F46L
notes: Humanized, human IgG4/kappa

- Dissociation % [2]: -0.42%
- End (RU) [2]: 47.1 RU
- Kd [2]: < 0.0338 nM
- Start (RU) [2]: 47.3 RU
- koff [2]: < 1e-05 s⁻¹
- kon [2]: 296000 M⁻¹ s⁻¹
B23: huC2C1A1A1-V16 (antibody, human IgG4 S228P, kappa, V domains shown)
VH: B11 VH with S49A
VL: B11 VL
notes: Humanized, human IgG4/kappa

- Dissociation % [2]: 0.23%
- End (RU) [2]: 44 RU
- Kd [2]: < 0.0773 nM
- Start (RU) [2]: 43.9 RU
- koff [2]: < 1e-05 s⁻¹
- kon [2]: 129000 M⁻¹ s⁻¹
B24: huC2C1A1A1-V1 (antibody, human IgG4 S228P, kappa, V domains shown)
VH: B11 VH
VL: B11 VL with F46L
notes: Humanized, human IgG4/kappa
